Measured values: PMC4677475 (Journal of biomolecular screening, 2011)
Where two headings read alike, the source gives them in different places.

Experiments:
[1] = target: T1, His-tagged human GTP cyclohydrolase 1 (human, UniProt P30793 1-250); assay: FRET or BRET
T1 sequence (looked up): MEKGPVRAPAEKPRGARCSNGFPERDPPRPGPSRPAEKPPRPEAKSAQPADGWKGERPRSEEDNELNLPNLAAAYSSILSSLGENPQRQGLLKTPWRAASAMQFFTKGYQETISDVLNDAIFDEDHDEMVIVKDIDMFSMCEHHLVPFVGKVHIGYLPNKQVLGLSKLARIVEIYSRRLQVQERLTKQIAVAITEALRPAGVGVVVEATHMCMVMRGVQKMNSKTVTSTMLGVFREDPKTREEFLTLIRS

[2] = target: T1, His-tagged human GTP cyclohydrolase 1; assay: FRET or BRET; remark: listed apart in the source

B1: glutathione S-transferase (GST)-tagged human GTP cyclohydrolase feedback regulatory protein (natural protein)
chain: not shown
- Kd [1]: 52.1 nM
- Kd [2]: 15.9 nM
